Experimental data from PMC6959147 (BioMed Research International, 2019).

B1: scFv-yeast clone 3_3 (scFv, V domains shown)
VH: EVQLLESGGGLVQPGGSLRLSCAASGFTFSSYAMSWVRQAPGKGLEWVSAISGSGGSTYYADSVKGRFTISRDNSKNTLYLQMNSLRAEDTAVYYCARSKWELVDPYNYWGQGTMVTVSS
VL: NFMLTQPHSVSESPGKTITISCTRSSGSIAGNYVQWYQQRPGSAPIIVIYEDNQRPSGVPDRFSGSIDSSSNSASLTISRLKTEDEADYYCQSYEASNVVFGGGTKLTVL
notes: as the stretch N-terminal of the HCDR3 of m4; HCDR3 of clone 3_3 (same as 10_4); as the stretch C-terminal of the HCDR3 of m4; also called 10_4; not shown: HA, C-terminal, kept
B2: scFv-yeast clone 3_7 (scFv, V domains shown)
VH: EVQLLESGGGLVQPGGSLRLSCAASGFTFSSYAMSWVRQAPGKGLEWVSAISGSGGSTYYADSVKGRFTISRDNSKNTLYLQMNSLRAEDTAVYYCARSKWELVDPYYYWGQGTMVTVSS
VL: B1 VL
notes: as the stretch N-terminal of the HCDR3 of m4; HCDR3 of clone 3_7; as the stretch C-terminal of the HCDR3 of m4; not shown: HA, C-terminal, kept
B3: scFv-yeast clone 3_14 (scFv, V domains shown)
VH: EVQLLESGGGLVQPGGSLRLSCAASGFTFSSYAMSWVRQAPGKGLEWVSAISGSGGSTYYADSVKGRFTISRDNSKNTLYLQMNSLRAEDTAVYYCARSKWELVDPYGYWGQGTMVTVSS
VL: B1 VL
notes: as the stretch N-terminal of the HCDR3 of m4; HCDR3 of clone 3_14 (same as 10_2); as the stretch C-terminal of the HCDR3 of m4; also called 10_2; not shown: HA, C-terminal, kept
B4: scFv-yeast clone 3_17 (scFv, V domains shown)
VH: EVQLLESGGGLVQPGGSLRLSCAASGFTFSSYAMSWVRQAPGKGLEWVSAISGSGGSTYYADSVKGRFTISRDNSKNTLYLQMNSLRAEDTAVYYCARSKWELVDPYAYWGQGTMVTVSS
VL: B1 VL
notes: as the stretch N-terminal of the HCDR3 of m4; HCDR3 of clone 3_17; as the stretch C-terminal of the HCDR3 of m4; not shown: HA, C-terminal, kept
B5: scFv-yeast clone 10_3 (scFv, V domains shown)
VH: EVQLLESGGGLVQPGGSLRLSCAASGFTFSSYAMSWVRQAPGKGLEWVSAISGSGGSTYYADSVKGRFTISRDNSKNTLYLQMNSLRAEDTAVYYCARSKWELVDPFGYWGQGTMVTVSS
VL: B1 VL
notes: as the stretch N-terminal of the HCDR3 of m4; HCDR3 of clone 10_3; as the stretch C-terminal of the HCDR3 of m4; not shown: HA, C-terminal, kept
B6: scFv-yeast clone 10_12 (scFv, V domains shown)
VH: not shown
VL: B1 VL
notes: as the stretch N-terminal of the HCDR3 of m4; HCDR3 of clone 10_12; as the stretch C-terminal of the HCDR3 of m4; not shown: HA, C-terminal, kept
B7: mAb 3_3 (IgG4 converted from scFv 3_3) (antibody, V domains shown)
VH: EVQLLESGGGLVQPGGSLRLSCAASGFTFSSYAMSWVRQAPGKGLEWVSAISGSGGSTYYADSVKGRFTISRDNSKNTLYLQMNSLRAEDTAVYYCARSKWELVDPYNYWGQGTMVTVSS
VL: B1 VL
notes: as the VH stretch before the HCDR3 of m14; HCDR3 of 3_3; T to S at position 1 and D to N at position 10 against the wild type; as the VH stretch after the HCDR3 of m14; as the light chain of m14; IgG4; also called IgG 3_3; source: EBNA 293 cells, cotransfected (pEU8.2 and pEU4.2), purified from the medium (protein A); copies: 2 + 2
B8: mAb 3_7 (IgG4 converted from scFv 3_7) (antibody, V domains shown)
VH: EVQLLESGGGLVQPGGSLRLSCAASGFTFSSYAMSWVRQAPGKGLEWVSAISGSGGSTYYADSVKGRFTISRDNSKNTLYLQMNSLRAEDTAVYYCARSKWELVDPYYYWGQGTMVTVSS
VL: B1 VL
notes: as the VH stretch before the HCDR3 of m14; HCDR3 of 3_7; T to S at position 1 and D to Y at position 10 against the wild type; as the VH stretch after the HCDR3 of m14; as the light chain of m14; IgG4; also called IgG 3_7; source: EBNA 293 cells, cotransfected (pEU8.2 and pEU4.2), purified from the medium (protein A); copies: 2 + 2
B9: mAb 3_14 (IgG4 converted from scFv 3_14) (antibody, V domains shown)
VH: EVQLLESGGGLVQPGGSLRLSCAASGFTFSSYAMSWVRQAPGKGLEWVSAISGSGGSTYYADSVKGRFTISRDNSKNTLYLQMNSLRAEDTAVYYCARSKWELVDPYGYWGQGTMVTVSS
VL: B1 VL
notes: as the VH stretch before the HCDR3 of m14; HCDR3 of 3_14; T to S at position 1 and D to G at position 10 against the wild type; as the VH stretch after the HCDR3 of m14; as the light chain of m14; IgG4; also called IgG 3_14; source: EBNA 293 cells, cotransfected (pEU8.2 and pEU4.2), purified from the medium (protein A); copies: 2 + 2
B10: mAb 3_17 (IgG4 converted from scFv 3_17) (antibody, V domains shown)
VH: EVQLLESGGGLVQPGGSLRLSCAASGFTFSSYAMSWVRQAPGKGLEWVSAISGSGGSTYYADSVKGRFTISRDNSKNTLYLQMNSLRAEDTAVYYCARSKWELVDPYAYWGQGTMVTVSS
VL: B1 VL
notes: as the VH stretch before the HCDR3 of m14; HCDR3 of 3_17; T to S at position 1 and D to A at position 10 against the wild type; as the VH stretch after the HCDR3 of m14; as the light chain of m14; IgG4; also called IgG 3_17; source: EBNA 293 cells, cotransfected (pEU8.2 and pEU4.2), purified from the medium (protein A); copies: 2 + 2
B11: mAb 10_3 (IgG4 converted from scFv 10_3) (antibody, V domains shown)
VH: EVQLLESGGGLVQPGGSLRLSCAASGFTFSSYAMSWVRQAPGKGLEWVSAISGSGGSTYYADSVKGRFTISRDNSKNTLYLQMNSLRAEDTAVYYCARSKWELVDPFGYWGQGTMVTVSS
VL: B1 VL
notes: as the VH stretch before the HCDR3 of m14; HCDR3 of 10_3; T to S at position 1, Y to F at position 9 and D to G at position 10 against the wild type; as the VH stretch after the HCDR3 of m14; as the light chain of m14; IgG4; also called IgG 10_3; antibody 10_3; source: EBNA 293 cells, cotransfected (pEU8.2 and pEU4.2), purified from the medium (protein A); copies: 2 + 2

These binders were tested against T1, recombinant human PD-L1, Fc-tagged (rhPD-L1-Fc) (Homo sapiens, UniProt Q9NZQ7) (assay: flow cytometry on cells; scFv displayed on yeast, titration with rhPD-L1-Fc (10 pM to 10 nM plus 30 nM), PBS 0.5% BSA, room temperature; binding MFI normalised on scFv expression; apparent KD = half-saturating antigen concentration). Details: one partner purified.
T1 construct: human PD-L1 (programmed death ligand-1) extracellular domain, linked to the Fc region of human IgG1; soluble disulfide-linked homodimer; also called dimeric rhPD-L1-Fc; dimeric PD-L1; source: bought: R&D Systems
T1 sequence (Q9NZQ7 19-238): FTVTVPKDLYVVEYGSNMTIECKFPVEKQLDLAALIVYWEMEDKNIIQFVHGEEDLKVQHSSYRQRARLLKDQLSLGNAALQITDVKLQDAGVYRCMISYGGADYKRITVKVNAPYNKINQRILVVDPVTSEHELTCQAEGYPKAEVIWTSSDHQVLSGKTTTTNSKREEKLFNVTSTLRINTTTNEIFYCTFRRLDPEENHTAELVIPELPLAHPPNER

**Q.** With B1 as the binder, how does the Kd read?
**A.** Its Kd is < 1 nM.

**Q.** For B2, which Kd is on record?
**A.** Its Kd is < 1 nM.

**Q.** B3 was tested. Which Kd did it give?
**A.** The Kd was < 1 nM.

**Q.** Which Kd does the source give for B4 here?
**A.** Its Kd is < 1 nM.

**Q.** How did the Kd turn out when B5 was run?
**A.** The Kd was < 1 nM.

**Q.** How did the Kd turn out when B6 was run?
**A.** The Kd was < 1 nM.

The binders below were run against T1, recombinant human PD-L1, Fc-tagged … (assay: SPR; Biacore X100, 25°C, HBS-EP pH 7.4; dimeric rhPD-L1-Fc (300 RU) immobilised by amine coupling on CM5, IgG as analyte (12.5-0.39 nM wild type, 6.25-0.39 nM mutated mAbs); 1:1 Langmuir; apparent constants (KD2) of bivalent binding). Details: both partners purified.

**Q.** How did the Kd turn out when B7 was run?
**A.** The Kd was 0.174 nM.

**Q.** And the koff?
**A.** The koff was 0.000193 s⁻¹.

**Q.** What about the kon of the same binder?
**A.** Its kon is 1.14e+06 M⁻¹ s⁻¹.

**Q.** What does the source list for B8?
**A.** Kd: 0.287 nM; koff: 0.000287 s⁻¹; kon: 1.03e+06 M⁻¹ s⁻¹

**Q.** For B9, which Kd is on record?
**A.** The Kd was 0.172 nM.

**Q.** And the koff?
**A.** Its koff is 0.000176 s⁻¹.

**Q.** And the kon?
**A.** Its kon is 1.05e+06 M⁻¹ s⁻¹.

**Q.** B10 was tested. Which Kd did it give?
**A.** Its Kd is 0.165 nM.

**Q.** What about the koff of the same binder?
**A.** The koff was 0.000159 s⁻¹.

**Q.** What about the kon of the same binder?
**A.** The kon was 1.01e+06 M⁻¹ s⁻¹.

**Q.** B11 was tested. Which Kd did it give?
**A.** The Kd was 0.139 nM.

**Q.** What about the koff of the same binder?
**A.** Its koff is 0.000148 s⁻¹.

**Q.** And the kon?
**A.** Its kon is 1.1e+06 M⁻¹ s⁻¹.
